Laboratory results as given in patent publication US20210301295A1.

Target: 6×His tag-AVI tag-DPP4 fusion protein, site-directed biotinylated and labeled with color latex throu (human), P27487
Settings: remark: other sources report otherwise

B1: Recombinant S1 protein of MERS-CoV, K9N5Q8 18-725 (ligand)
chain: YVDVGPDSVKSACIEVDIQQTFFDKTWPRPIDVSKADGIIYPQGRTYSNITITYQGLFPYQGDHGDMYVYSAGHATGTTPQKLFVANYSQDVKQFANGFVVRIGAAANSTGTVIISPSTSATIRKIYPAFMLGSSVGNFSDGKMGRFFNHTLVLLPDGCGTLLRAFYCILEPRSGNHCPAGNSYTSFATYHTPATDCSDGNYNRNASLNSFKEYFNLRNCTFMYTYNITEDEILEWFGITQTAQGVHLFSSRYVDLYGGNMFQFATLPVYDTIKYYSIIPHSIRSIQSDRKAWAAFYVYKLQPLTFLLDFSVDGYIRRAIDCGFNDLSQLHCSYESFDVESGVYSVSSFEAKPSGSVVEQAEGVECDFSPLLSGTPPQVYNFKRLVFTNCNYNLTKLLSLFSVNDFTCSQISPAAIASNCYSSLILDYFSYPLSMKSDLSVSSAGPISQFNYKQSFSNPTCLILATVPHNLTTITKPLKYSYINKCSRFLSDDRTEVPQLVNANQYSPCVSIVPSTVWEDGDYYRKQLSPLEGGGWLVASGSTVAMTEQLQMGFGITVQYGTDTNSVCPKLEFANDTKIASQLGNCVEYSLYGVSGRGVFQNCTAVGVRQQRFVYDAYQNLVGYYSDDGNYYCLRACVSVPVSVIYDKETKTHATLFGSVACEHISSTMSQYSRSTRSMLKRRDSTYGPLQTPVGCVLGLVNSSLFVE
**Q.** With B1 as the binder, how does the sensitivity of the test strip (lowest positive concentration) read?
**A.** Its sensitivity of the test strip (lowest positive concentration) is 10 nM.
